From the supplement of paper PMC10724198
± gives the standard deviation of the averaged measurements.

What was measured:
[1] = test system: Saccharomyces cerevisiae; assay: protein stability index of tFT-peptide fusion (C-terminal peptide) (PSI (0-1 scale)); higher = more stable (slower turnover)
Description: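 MPS profiling in S. cerevisiae of the tFT-X12 degron library: putative degron peptides plus stable controls, 12 aa, fused to the C-terminus of a sfGFP-mCherry timer. Cells are FACS-sorted into 8 mCherry/sfGFP bins and deep-sequenced. PSI runs from 0 (unstable) to 1 (stable). Backgrounds are wild type, das1Δ and doa10Δ at 30 °C, and wild type, das1Δ, cdc34-1 and cdc53-1 at 37 °C; 2-3 technical replicates each.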

[2] = test system: Saccharomyces cerevisiae; assay: as above; details: genetic background: wild type; temperature: 30 C
[3] = genetic background: cdc34-1, temperature: 37 C
[4] = genetic background: cdc53-1, temperature: 37 C
[5] = genetic background: das1 deletion, temperature: 30 C
[6] = genetic background: das1 deletion, temperature: 37 C
[7] = genetic background: doa10 deletion, temperature: 30 C
[8] = genetic background: wild type, temperature: 30 C
[9] = genetic background: wild type, temperature: 37 C
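Also: PSI is a weighted mean of sequencing reads over stability bins, variants kept only with over 10 reads, mCherry proximal and sfGFP distal, peptide attached via GGGS linker.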

Sequence | protein stability index [1, 3] | protein stability index [1, 4] | protein stability index [1, 5] | protein stability index [1, 6] | protein stability index [1, 7] | protein stability index [1, 8] | protein stability index [1, 9] | protein stability index [2]
RSLSFGMVLCYS | 0.358 ± 0.027 | 0.366 ± 0.0079 | 0.248 ± 0.041 | 0.4382 ± 0.0025 | 0.228 ± 0.012 | 0.253 ± 0.028 | 0.401 ± 0.012 | 0.343 ± 0.029
GTRAGNPDRQRS | 0.678 ± 0.052 | 0.759 ± 0.011 | 0.638 ± 0.034 | 0.714 ± 0.025 | 0.656 ± 0.021 | 0.632 ± 0.022 | 0.706 ± 0.016 | 0.706 ± 0.013
SVFRFLFLALLV | 0.2 ± 0.052 | 0.162 ± 0.018 | 0.282 ± 0.029 | 0.352 ± 0.023 | 0.173 ± 0.0056 | 0.145 ± 0.0078 | 0.18 ± 0.016 | 0.191 ± 0.016
SWRRCLSSIPVA | 0.383 ± 0.0085 | 0.416 ± 0.012 | 0.319 ± 0.026 | 0.457 ± 0.0086 | 0.276 ± 0.0056 | 0.303 ± 0.035 | 0.438 ± 0.012 | 0.425 ± 0.013
YPVGAAFIRARA | 0.45 ± 0.016 | 0.501 ± 0.021 | 0.361 ± 0.036 | 0.5378 ± 0.0026 | 0.326 ± 0.0087 | 0.377 ± 0.026 | 0.5174 ± 0.0047 | 0.491 ± 0.011
LLHFVLYFLSCT | 0.51 ± 0.057 | 0.548 ± 0.0012 | 0.442 ± 0.03 | 0.5554 ± 0.0051 | 0.42 ± 0.03 | 0.434 ± 0.01 | 0.549 ± 0.012 | 0.456 ± 0.018
CGWVRRARVKMM | 0.622 ± 0.073 | 0.693 ± 0.01 | 0.63 ± 0.026 | 0.709 ± 0.014 | 0.114 ± 0.03 | 0.137 ± 0.029 | 0.226 ± 0.0087 | 0.241 ± 0.015
SSGSLLLPRFLT | 0.658 ± 0.038 | 0.7301 ± 0.0046 | 0.672 ± 0.023 | 0.734 ± 0.019 | 0.222 ± 0.019 | 0.243 ± 0.038 | 0.54 ± 0.037 | 0.387 ± 0.03
FVVSCLSWVFLF | 0.429 ± 0.0099 | 0.528 ± 0.04 | 0.434 ± 0.032 | 0.5418 ± 0.004 | 0.101 ± 0.022 | 0.114 ± 0.025 | 0.127 ± 0.026 | 0.175 ± 0.024
LEYCLATYLSAC | 0.3382 ± 0.00047 | 0.435 ± 0.013 | 0.25 ± 0.035 | 0.43854 ± 0.00041 | 0.211 ± 0.0025 | 0.248 ± 0.016 | 0.4386 ± 0.00068 | 0.378 ± 0.0073
YHGVYLARVLQA | 0.639 ± 0.0084 | 0.677 ± 0.021 | 0.604 ± 0.011 | 0.69 ± 0.015 | 0.243 ± 0.011 | 0.286 ± 0.024 | 0.501 ± 0.029 | 0.45 ± 0.041
SGMLVYFGTVCY | 0.502 ± 0.0077 | 0.599 ± 0.13 | 0.341 ± 0.03 | 0.577 ± 0.014 | 0.318 ± 0.028 | 0.357 ± 0.0091 | 0.511 ± 0.027 | 0.4498 ± 0.0028
FFVYFFLLLFWF | 0.171 ± 0.015 | 0.0838 ± 0.023 | 0.213 ± 0.029 | 0.233 ± 0.027 | 0.272 ± 0.028 | 0.188 ± 0.015 | 0.196 ± 0.0034 | 0.208 ± 0.0049
VFLFSLCIRLSR | 0.122 ± 0.065 | 0.214 ± 0.0052 | 0.141 ± 0.031 | 0.289 ± 0.013 | 0.133 ± 0.013 | 0.147 ± 0.018 | 0.248 ± 0.011 | 0.204 ± 0.008
LVRDEVLKVKLV | 0.6432 ± 0.004 | 0.718 ± 0.011 | 0.643 ± 0.018 | 0.722 ± 0.013 | 0.138 ± 0.0093 | 0.17 ± 0.021 | 0.244 ± 0.0095 | 0.297 ± 0.014
